One test concerns the target CD8-CIMPR (UniProt P11717). The test can be described thus: co-IP; native immunoprecipitation with anti-CD8 and protein A-Sepharose from HeLa cells expressing CD8-CIMPR or CD8-sortilin (control: HeLa cells); western blot, bands quantified with IMAGEJ, 3 repeats.
Another test deals with CD8-sortilin (UniProt Q99523). The description is as above.

Sequence of UniProt P11717 (P11717 whole entry): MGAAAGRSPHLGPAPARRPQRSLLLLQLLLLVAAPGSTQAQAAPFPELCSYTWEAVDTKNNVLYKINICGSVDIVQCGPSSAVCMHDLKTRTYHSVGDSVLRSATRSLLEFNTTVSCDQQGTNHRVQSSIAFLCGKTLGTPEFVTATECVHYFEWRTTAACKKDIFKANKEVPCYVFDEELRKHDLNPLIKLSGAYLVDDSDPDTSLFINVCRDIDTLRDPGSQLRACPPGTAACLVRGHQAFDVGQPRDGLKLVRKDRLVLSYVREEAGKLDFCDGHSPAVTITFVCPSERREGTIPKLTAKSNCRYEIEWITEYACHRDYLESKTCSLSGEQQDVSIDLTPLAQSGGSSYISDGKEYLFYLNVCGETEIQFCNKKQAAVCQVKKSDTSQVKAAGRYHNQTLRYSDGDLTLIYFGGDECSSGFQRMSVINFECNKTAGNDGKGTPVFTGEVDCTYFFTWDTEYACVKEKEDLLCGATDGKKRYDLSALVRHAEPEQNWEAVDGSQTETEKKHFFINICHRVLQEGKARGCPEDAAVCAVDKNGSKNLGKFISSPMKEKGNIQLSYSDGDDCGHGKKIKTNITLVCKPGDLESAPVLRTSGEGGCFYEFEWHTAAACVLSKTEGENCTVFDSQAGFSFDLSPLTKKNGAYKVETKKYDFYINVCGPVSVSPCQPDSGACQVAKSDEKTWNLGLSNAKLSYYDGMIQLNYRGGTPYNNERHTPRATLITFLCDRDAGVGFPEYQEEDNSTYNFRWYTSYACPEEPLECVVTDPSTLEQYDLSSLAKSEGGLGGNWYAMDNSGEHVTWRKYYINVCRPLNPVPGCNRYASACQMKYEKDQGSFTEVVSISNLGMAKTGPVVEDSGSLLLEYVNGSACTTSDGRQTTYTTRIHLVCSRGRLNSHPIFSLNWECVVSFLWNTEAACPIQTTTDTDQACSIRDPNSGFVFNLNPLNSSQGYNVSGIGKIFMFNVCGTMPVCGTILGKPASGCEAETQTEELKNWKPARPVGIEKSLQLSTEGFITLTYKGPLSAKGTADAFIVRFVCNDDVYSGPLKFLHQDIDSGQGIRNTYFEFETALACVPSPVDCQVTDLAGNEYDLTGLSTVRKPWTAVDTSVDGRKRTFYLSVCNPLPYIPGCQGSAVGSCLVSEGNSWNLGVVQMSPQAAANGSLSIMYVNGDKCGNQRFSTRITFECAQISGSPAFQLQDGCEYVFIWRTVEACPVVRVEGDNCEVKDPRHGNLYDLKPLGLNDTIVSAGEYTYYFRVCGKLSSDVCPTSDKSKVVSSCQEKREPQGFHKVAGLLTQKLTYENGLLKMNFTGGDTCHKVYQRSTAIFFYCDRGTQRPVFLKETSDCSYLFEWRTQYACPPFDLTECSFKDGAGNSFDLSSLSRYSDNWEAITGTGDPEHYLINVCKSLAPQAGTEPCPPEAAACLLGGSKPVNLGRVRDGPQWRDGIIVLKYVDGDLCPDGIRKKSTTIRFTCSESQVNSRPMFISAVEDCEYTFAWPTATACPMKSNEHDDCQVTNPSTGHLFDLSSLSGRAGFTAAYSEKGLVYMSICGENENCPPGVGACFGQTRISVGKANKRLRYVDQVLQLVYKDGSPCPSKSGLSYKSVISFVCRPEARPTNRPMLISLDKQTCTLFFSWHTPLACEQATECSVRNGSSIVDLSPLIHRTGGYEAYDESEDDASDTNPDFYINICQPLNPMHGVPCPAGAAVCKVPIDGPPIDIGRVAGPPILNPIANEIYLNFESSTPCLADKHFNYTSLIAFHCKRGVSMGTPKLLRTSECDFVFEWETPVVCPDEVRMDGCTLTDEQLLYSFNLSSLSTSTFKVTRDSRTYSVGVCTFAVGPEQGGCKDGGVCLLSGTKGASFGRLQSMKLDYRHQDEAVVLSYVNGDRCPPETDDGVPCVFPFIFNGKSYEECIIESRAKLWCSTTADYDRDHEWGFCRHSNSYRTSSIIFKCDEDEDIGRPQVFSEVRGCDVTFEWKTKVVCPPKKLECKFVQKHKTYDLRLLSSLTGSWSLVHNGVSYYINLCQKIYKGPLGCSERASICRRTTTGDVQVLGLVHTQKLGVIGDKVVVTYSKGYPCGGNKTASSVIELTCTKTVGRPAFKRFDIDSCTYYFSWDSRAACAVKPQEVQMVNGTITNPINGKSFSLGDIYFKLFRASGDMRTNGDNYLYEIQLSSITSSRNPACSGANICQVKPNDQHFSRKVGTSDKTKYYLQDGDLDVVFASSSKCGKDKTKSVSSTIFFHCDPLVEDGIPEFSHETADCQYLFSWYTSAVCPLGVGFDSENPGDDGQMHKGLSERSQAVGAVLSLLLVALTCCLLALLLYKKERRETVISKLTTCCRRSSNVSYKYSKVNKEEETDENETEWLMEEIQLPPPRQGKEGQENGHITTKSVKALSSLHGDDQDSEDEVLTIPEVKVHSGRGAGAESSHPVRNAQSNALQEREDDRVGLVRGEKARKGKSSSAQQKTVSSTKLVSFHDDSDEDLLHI

For “SPG15 (from UniProt Q68DK2 1-2539) (natural protein)”, the percent of input pulled down with CD8-CIMPR and with CD8-sortilin was 0.15% each time.
On to “AP-1 γ (from UniProt O43747 1-822) (natural protein)”, for which the results for the percent of input pulled down with CD8-CIMPR and in the test with CD8-sortilin were 0.1% and 0.05%, respectively.

B1: AP-5 ζ subunit (natural protein)
chain: MFSAGAESLLHQAREIQDEELKKFCSRICKLLQAEDLGPDTLDSLQRLFLIISATKYSRRLEKTCVDLLQATLGLPACPEQLQVLCAAILREMSPSDSLSLAWDHTQNSRQLSLVASVLLAQGDRNEEVRAVGQGVLRALESRQPEGPSLRHLLPVMAKVVVLSPGTLQEDQATLLSKRLVDWLRYASLQQGLPHSGGFFSTPRARQPGPVTEVDGAVATDFFTVLSSGHRFTDDQWLNVQAFSMLRAWLLHSGPEGPGTLDTDDRSEQEGSTLSVISATSSAGRLLPPRERLREVAFEYCQRLIEQSNRRALRKGDSDLQKACLVEAVLVLDVLCRQDPSFLYRSLSCLKALHGRVRGDPASVRVLLPLAHFFLSHGEAAAVDSEAVYQHLFTRIPVEQFHSPMLAFEFIQFCRDNLHLFSGHLSTLRLSFPNLFKFLAWNSPPLTSEFVALLPALVDAGTALEMLHALLDLPCLTAVLDLQLRSAPAASERPLWDTSLRAPSCLEAFRDPQFQGLFQYLLRPKASGATERLAPLHQLLQPMAGCARVAQCAQAVPTLLQAFFSAVTQVADGSLINQLALLLLGRSDSLYPAPGYAAGVHSVLSSQFLALCTLKPSLVVELARDLLEFLGSVNGLCSRASLVTSVVWAIGEYLSVTYDRRCTVEQINKFFEALEALLFEVTQCRPSAALPRCPPQVVTVLMTTLTKLASRSQDLIPRASLLLSKMRTLAHSPATSSTHSEEGAEAIRTRATELLTLLKMPSVAQFVLTPSTEVCSPRYHRDANTALPLALRTVSRLVEREAGLMPG
In the case of B1, the percent of input pulled down in the test with CD8-CIMPR came to 0.08%; with CD8-sortilin, 0.23%.

For the origin of these results see article PMC5806898.
